In patent publication US20230201361:

System: eighteen amino acid peptide containing the amino acid sequence PLGIA, covalently labeled with the same fluorophore near each end (HES structure)

Sequence of matrix metalloprotease -9 (MMP-9) (chain, as listed by the source): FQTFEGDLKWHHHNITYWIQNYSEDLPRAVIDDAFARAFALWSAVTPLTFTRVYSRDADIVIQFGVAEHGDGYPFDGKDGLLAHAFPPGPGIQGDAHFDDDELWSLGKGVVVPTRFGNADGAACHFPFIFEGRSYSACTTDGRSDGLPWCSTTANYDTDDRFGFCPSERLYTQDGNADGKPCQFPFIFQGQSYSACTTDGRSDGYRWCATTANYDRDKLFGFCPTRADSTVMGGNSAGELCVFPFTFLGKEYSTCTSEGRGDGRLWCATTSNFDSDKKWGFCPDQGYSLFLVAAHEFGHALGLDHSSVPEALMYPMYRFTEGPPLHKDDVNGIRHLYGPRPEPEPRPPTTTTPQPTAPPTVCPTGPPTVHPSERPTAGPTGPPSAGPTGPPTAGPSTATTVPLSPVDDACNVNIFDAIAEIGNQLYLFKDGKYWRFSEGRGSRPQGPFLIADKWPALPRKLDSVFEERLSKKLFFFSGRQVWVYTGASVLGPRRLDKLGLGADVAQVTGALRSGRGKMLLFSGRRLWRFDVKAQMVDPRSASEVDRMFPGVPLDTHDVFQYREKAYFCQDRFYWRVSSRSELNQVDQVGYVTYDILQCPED

matrix metalloprotease -9 (MMP-9)
HPLC retention time (C18, reverse phase): After exposure to MMP-9, the major peaks were at ca. 30 and 31 minutes with the almost complete disappearance of the 38 minute peak | cleavage of the peptide: The PLGIA sequence was recognized by matrix metalloprotease -9 (MMP-9) and is cleaved between the LG and the IA
